Test results from the DeepSol protein solubility set.

Assay: soluble on expression in E. coli; label from the status in PepcDB or PDB records

Row | Sequence | soluble on expression in E. coli
1 | MGSDKIHHHHHHLNVYHASLEEAQADPRLKGLQGASPFERLDWLALLANECLDPARARLSVVTSGECMAALPWIEREGRIDALANWYSFFVSPLGDSALLSRIVEALPHGRAAFAPLPEEDARLLARAFRNAGWCTLAAPCDVNHVLPVEGRSFAQYWAERPGALRETVRRKSRKGEVSLRILTEFSPEDWEAYETIYRLSWKPGEGSPAFLRKWAEADGEAGRLRLGIAEIDGAAVAAQFWTVEGGTAYIHKLAHDERFRKSSPGTLLTAAMFEHVIDRDRVDLIDFGTGDDPYKRDWMDDVRSRWSVQAWRPGAVRHWPSLALALARTLAGQIMRPLVSRNGDG | not soluble
2 | MAGQEFEKLLFYIVTVPFFVRAEPTTGELINPQAGAPFFLATAATTMDYEVEMVITSEAGYLLMRDNAKKVKVRPGVEQTVYDFIKMAKDAGVKIYLCTPSLDLTDIYKEEDVNKEICDGILGGAAFLDKLMSGEYAVITL | not soluble
3 | MGSDKIHHHHHHMYRVFVFDLDGTLLNDNLEISEKDRRNIEKLSRKCYVVFASGRMLVSTLNVEKKYFKRTFPTIAYNGAIVYLPEEGVILNEKIPPEVAKDIIEYIKPLNVHWQAYIDDVLYSEKDNEEIKSYARHSNVDYRVEPNLSELVSKMGTTKLLLIDTPERLDELKEILSERFKDVVKVFKSFPTYLEIVPKNVDKGKALRFLRERMNWKKEEIVVFGDNENDLFMFEEAGLRVAMENAIEKVKEASDIVTLTNNDSGVSYVLERISTDCLDE | not soluble
4 | MHHHHHHSSGVDLGTENLYFQSMSHQVGVAGAVFDESTRKILVVQDRNKLKNMWKFPGGLSEPEEDIGDTAVREVFEETGIKSEFRSVLSIRQQHTNPGAFGKSDMYIICRLKPYSFTINFCQEECLRCEWMDLNDLAKTENTTPITSRVARLLLYGYREGFDKIDLTVEELPAVYTGLFYKLYHKELPENYKTMKGID | soluble
5 | MTKTWEQLSAIQPIGVKMLMNSIAKERISHAYLLEGEKGTGKFATAIQMAKSFLCSQRNRVEPCHVCTNCKRIDSGNHPNLHIVKPDGLSIKKQQIHDLQEEFSKTGLEANKKVYIIEHADRMTANAANALLKFLEEPSSDTTAILLTEQSHQILNTILSRCQVVTFRPLPTESLIRRLQDEGITVSLSTLAAQLTNSFDEALTLCNDEWFAQARALVIKLCEALEKDKASIFFVQEKWGKHFGEKEQLQQGLDMLLLIYKDLLYVQLGEEDRLVFREQKEMFESFSYAQKRIVSALFNILEAKNRINANVNAQLVFEQLVLRLQEG | not soluble
6 | MGSDKIHHHHHHMAEFFPEIPKIQFEGKESTNPLAFRFYDPNEVIDGKPLKDHLKFSVAFWHTFVNEGRDPFGDPTAERPWNRFSDPMDKAFARVDALFEFCEKLNIEYFCFHDRDIAPEGKTLRETNKILDKVVERIKERMKDSNVKLLWGTANLFSHPRYMHGAATTCSADVFAYAAAQVKKALEITKELGGEGYVFWGGREGYETLLNTDLGLELENLARFLRMAVEYAKKIGFTGQFLIEPKPKEPTKHQYDFDVATAYAFLKNHGLDEYFKFNIEANHATLAGHTFQHELRMARILGKLGSIDANQGDLLLGWDTDQFPTNIYDTTLAMYEVIKAGGFTKGGLNFDAKVRRASYKVEDLFIGHIAGMDTFALGFKIAYKLAKDGVFDKFIEEKYRSFKEGIGKEIVEGKTDFEKLEEYIIDKEDIELPSGKQEYLESLLNSYIVKTIAELR | not soluble
7 | MSLKHQETTSQQYNFSIIKHGDISTPQGFTAGGMHIGLRANKKDFGWIYSSSLASSAAVYTLNQFKAAPLIVTEDTLQKSKGKLQALVVNSANANSCTGQQGIDDARQTQTWVAQQLQIPSEHVAVASTGVIGEYLPMDKIKTGTEHIKDTNFATPGAFNEAILTTDTCTKHIAVSLKIDGKTVTIGGSAKGSGMIHPNMATMLAFITTDASIESNTLHQLLKSSTDHTFNMITVDGDTSTNDMVLVMANHQVEHQILSQDHPQWETFVDAFNFVCTFLAKAIARDGEGATKLISVNVSGAKSISDARKIGKTIVSSNLVKSAIFGEDANFGRIITAIGYSGCEIDPKCTYVQLNQIPVVDKGMAVLFDEQAMSNTLTHEHVTIDVQLGLGNAAATAYGCDLSYDYVRINASYRTEGHHHHHH | soluble
8 | MNFESTRRRLTEKQADTVDRLTRAAVEVLREEGFAGLTVRSVAGIAGVAPATAYTYFSSKEHLVAEVFWRRLAGSPQPADDGLDRTGRVVAVLRHIALLVADEPELAGAVTNALLGRDPDVEHLRARIGLEIRDRLATALGEGHDPDVLEALELLYAGGLVRAGMGYGSYAQFADRLETSAKLILE | not soluble
9 | EGPLHWESTLTYTSYRDRWKERDPKVILAPYVKENDPVSAIYTLIPDGIKQAGEDTPAMPDLLPGQRKYKDVNGLDEEGNLTGKPDGKIDQADVVYLGTRAPKFTMGFSNDFRYKGFDLNIYLYASVGGYSYPYTQVEHGVYGGNGIQRLKDNNNFLADIKNRWTSDNMSSAMPSGEVNSYDSYGAPNWEKNTYLRLKSVTLGYDLSRLFKADKLKVRFYFSGQNLLTFTGYKGLDPEVENDRASYPQQKTFSFGLDVKF | not soluble
10 | MLWRKRLFAHLYPGLSARHEALVAERKRALFREALRRARPERVLEIGPGPGTNLAHLPEGVAYLALEPNPFFHPRLREEARKRGLALTLLPGRAEAIPLPGGSVDLVVATLVLCSVADPEKAIEEVHRVLRPGGAYLFLEHVAAPKRTPLRFLQEVATPFFAFFGDGCHPNRETLALIQARFPRVEAEAFPLPLPVVAPHVAGLAFKEGGSGGSLQGPWA | soluble
11 | MTPWLTVVGIGEDGFSGLGKQARRALLGAGRVFGSPRQLALLPRCVTAEQLAWPSPFSLAPVLALRGEPVCVLASGDPMFYGVGASLARQVPAAEMRVLSLPSSCALAAARLGWPLQDLQVVSLVARPLAALNAHLHSGMRLLVLSNDGDSPAAIAAQLRGQGFGPSRLQVFEHLGGVDERALAGTAQDWPHTGIAALNLVAIECLATPDAPRLHRLAGLPDAAYRHDGQLTKRDVRAITLARLAPQPGELLWDVGAGCGSIGIEWMRAHPACRALAIEADEGRQGLIEHNRDALGVPGLQLVRGKAPAALQGLEQPDAIFIGGGVTRTGVLDLCWASLRPGGRLVANAVTLQSELALAHFREQHGGELTRIHVAHAQPLGAFDTWRQALPITLLEVLKPADA | not soluble
12 | MSITEQVDVAIVGSGPAGLAAAIELRRQGVARVCVLERDGEAGGIPRHCAHPPFGLREHGRLLTGPAYAQRNVEQAERAGVDIRLRHSVVALAAAGLLQLATPEGPRSLRATRVLLATGARETPRSARLLGGDRPLGVINTGALQAYLYLQGLKPFERPLIVGTELVSLSAVMSCRRAGIRPVAMLERNARATARWPLSLFPRLCGVPMHFSSELLEIEGRGRVEAARVRLGDGRVERIACDGILLSGRFVPESSLVRLSHLELDPASGGPRIDQFGRCSDPAYFAAGNLLRPIETAGWSFREGRRIAGLLAADLRAELPSAAPGIAIDCSGPLKLCVPQRLLADPTPGLAHLQLRVSEAASGRLRILADGRPVWERALSCLPERRLLVPLAALRLPPDTRRLEVAFLTSGHLEHHHHHH | not soluble
13 | MDTKHPPDPSGPSDPNINLGEFEDPVDGYADDDLLTPDDLSVSVTGMTPSRSFLETEEFETELGGVEPFEDLFNDISAHEIIQVIADGDRVGRPIVVVYAYRLPSSKEIDHARLLQYLVQIIDKIVDQDYTIVYFHYGLRSHNKPPVRWLFQAYKQLDRRFKKNLKALYVVHPTRFIRIIFSLFKGFISSKFENKFHYVMCIDELENALSVARLNLPSPIRDHDKSFSTQSNRPETPPAQPLPTQQFGVPLEFILSHCGGNIPPIVDQLIEYLEAHALTMEGVFRKSANIGSIKRLQDRINKGEKIDFENDPEYKDNEYVASLHASVLLKTFFRSLGEPLTTNRLYPKLAALSEVSKTEKSAAVKEFVKLLPRENYILLKTVIKFLTRVAENSKVNLMTANNLSVVFGPNLTWPTDQEVPISQLNNLNNFCYKLIVDYDSVFDH | not soluble
14 | MSLAIKMLAIDLDGTLLTDSKTILPGTYKALQEAKAAGIKIVLTSGRPLSGIKGYAEELGLSGSEEYAILFNGAVVQNLDGRVLISHDLDFGDFNTLLHMQRLSDVNLDFETPDRFYTLDKRISIRLQIDGAETKNQLWIQDRSDFKKDFTFAKAVYQCDDPDQVDRLWNRLPDWFFQSYAVVRSWPEVVEVGSLAASKGYAVSELASRLGLSNSEVMIFGDQGNDRSMFEIPDFKRVAMGNAIDEIKDLADYVTDTNERDGIAKALRKLVLEGHHHHHH | soluble
15 | MAHHHHHHMYADDLSIIVKGQSREDAIPTANMVLKKLHAWSQENGLAISPSKCEAAWFTLSTHTESDYDREGKRPLVVAGCEIPVMTMGASRTTKLLGMDLDPRLTLNVAASKQCAASSQRISQLRCIAHKEAGPSPHDLRMFVIGYGASKLRYGSELIWAVATDSAKNEMQKTYATLARIVSGVPSTVDPESALLEANMPPLHVLCLRARLSIFENTRACQMDWMRRPPPEPPPRAVFRISPLSRDELYAFVDAYTKEYGITQSSPREERFFRSSIPPWFAASAHRVTIGVELPTDHSITEEQLIREKRRVSEEALALHSHRSWILAKSGGVDVPKSAGVGILLSSLNSSEIIEKASINCGARPCSYRTESRALLLALERLIIPRIQHRHETLLVVADSQSLLAALNKGPLSQTDWTEDQIWQRLLTLTCAGWSVRLQFFTDIVEYMLTSLRISMRRRLWRLDNTRSMESHIYGIRIC | not soluble
16 | MGSDKIHHHHHHMARLGVDFGTSNTAAGLVQAGHPRVLPLEPGAQTLPTAVFIDFAARRYVYGTDAARAMMDGQEGRFLRGLKSILGTPLAREPRMFLNERLTLIEVIARFLAEIRTRAERLSGERFDRALSGRPVHFHSASAERDAQACTDLHDAYLMAGFSEVCFLPEPEAAALAVAGQGRMLIVDIGGGTSDFTLCDRRGTTTRMLASRGLRIGGTDFDRVLSLDHAMPLLGYEAQIGAELGEASHSAPRALFHDLASWEKIAFVYDPATLREVRRWVRLAEQPRLFERLAEVLESHLGHDVAYAVEAGKIAANGAAAGRIALDIVERGLGADLGNAAMQAALAGFADEIATCAMQTVRDAGVGPDSVDQVVFVGGSSLMGVIRAALARVLPGAEQQDSEVFTAVVHGLALASEDQ | not soluble
17 | MAVCGLGSRLGLGSRLGLRGCFGAARLLYPRFQSRGPQGVEDGDRPQPSSKTPRIPKIYTKTGDKGFSSTFTGERRPKDDQVFEAVGTTDELSSAIGFALELVTEKGHTFAEELQKIQCTLQDVGSALATPCSSAREAHLKYTTFKAGPILELEQWIDKYTSQLPPLTAFILPSGGKISSALHFCRAVCRRAERRVVPLVQMGETDANVAKFLNRLSDYLFTLARYAAMKEGNQEKIYMKNDPSAESEGL | not soluble
18 | MAQGTVEARHGALDEAALGIGRWRWDLRSQELVWSEEERAIFGLAPGAPVPGFAAFSAMIHPDDRARVVAAVSETLAQRRLRHSIGFRILRPDGTMRQILSHGRLVMGLDGKPISLEGVDLDLT | not soluble
19 | MGSDKIHHHHHHVTSGQDKPWPPVSMGMARLTTMAFHGENMVPPAIELLKRSEADPTDSAALLDLSAIHFLLGHEEAGLAYQERALAQNQVYRDHSETASEDGVRLLAFAAPGNLMSNVPIQFLIENSDIRLDVLYVVPGLDLPERVPAHDMAMVIAGESEPNREVLERIAAFADLWPCPPVLNDPRKVLQLSRDGVSSLLSGVPGIRIPATTRVDPESLARLGRGEIALTDLLPDGSFPVIARPLDSHAGKGLAKLDDPSTIALYLAAQPAEGYYLSSFVDYRGAGGMFRKYRIALIDGKPFVCHMAVSAHWMIHYLNADMRESAEKRAEEAQAFATFDEDFAARHKDAFATMAERIGLDYFAMDCAETPDGDLLVFEADTAMIVHAMDPPDIFPYKAPQMRRIFKAFQDMLRRIKQDKQD | not soluble
